Assay results taken from US20060008846A1 (RESEARCH DEVELOPMENT FOUNDATION, published 2006).

T1: ALK4 (activin type I receptor) (UniProt P36896 24-505, limits assumed)
T1 sequence (looked up): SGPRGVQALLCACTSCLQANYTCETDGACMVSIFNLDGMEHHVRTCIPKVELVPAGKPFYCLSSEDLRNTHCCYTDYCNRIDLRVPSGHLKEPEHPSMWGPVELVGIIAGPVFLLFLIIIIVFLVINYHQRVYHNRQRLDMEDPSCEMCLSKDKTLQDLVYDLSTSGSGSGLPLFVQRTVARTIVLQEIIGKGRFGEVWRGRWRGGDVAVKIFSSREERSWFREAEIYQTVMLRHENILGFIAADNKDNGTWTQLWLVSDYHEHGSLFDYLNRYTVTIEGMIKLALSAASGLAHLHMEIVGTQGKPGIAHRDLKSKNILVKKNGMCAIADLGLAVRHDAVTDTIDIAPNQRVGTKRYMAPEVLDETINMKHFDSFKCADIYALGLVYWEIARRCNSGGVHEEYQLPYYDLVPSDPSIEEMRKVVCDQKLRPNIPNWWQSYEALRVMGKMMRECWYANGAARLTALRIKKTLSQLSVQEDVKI

B1: activin-A K102E (ligand, human, UniProt P08476 311-426, looked up)
chain: GLECDGKVNICCKKQFFVSFKDIGWNDWIIAPSGYHANYCEGECPSHIAGTSGSSLSFHSTVINHYRMRGHSPFANLKSCCVPTKLRPMSMLYYDDGQNIIEKDIQNMIVEECGCS
B2: wild type activin-A (ligand, human, UniProt P08476 311-426, looked up)
chain: GLECDGKVNICCKKQFFVSFKDIGWNDWIIAPSGYHANYCEGECPSHIAGTSGSSLSFHSTVINHYRMRGHSPFANLKSCCVPTKLRPMSMLYYDDGQNIIKKDIQNMIVEECGCS
notes: mature; As tracer it was radioiodinated by the chloramine T method; also called WT activin-A; wt activin-A
B3: activin-A (M108A), P08476 311-426 (ligand, human, UniProt P08476 311-426, looked up)
chain: GLECDGKVNICCKKQFFVSFKDIGWNDWIIAPSGYHANYCEGECPSHIAGTSGSSLSFHSTVINHYRMRGHSPFANLKSCCVPTKLRPMSMLYYDDGQNIIKKDIQNAIVEECGCS
B4: activin-A S60P (ligand, human, UniProt P08476 311-426, looked up)
chain: GLECDGKVNICCKKQFFVSFKDIGWNDWIIAPSGYHANYCEGECPSHIAGTSGSSLSFHPTVINHYRMRGHSPFANLKSCCVPTKLRPMSMLYYDDGQNIIKKDIQNMIVEECGCS
B5: activin-A M108E (ligand, human, UniProt P08476 311-426, looked up)
chain: GLECDGKVNICCKKQFFVSFKDIGWNDWIIAPSGYHANYCEGECPSHIAGTSGSSLSFHSTVINHYRMRGHSPFANLKSCCVPTKLRPMSMLYYDDGQNIIKKDIQNEIVEECGCS
B6: activin-A/C chimera A/C 64-69 (ligand, UniProt P08476 311-373, looked up)
chain: GLECDGKVNICCKKQFFVSFKDIGWNDWIIAPSGYHANYCEGECPSHIAGTSGSSLSFHSTVINLLKANGHSPFANLKSCCVPTKLRPMSMLYYDDGQNIIKKDIQNMIVEECGCS
notes: range 1-63 of the mature chain;range 64-69 of the mature chain;range 70 to C-terminus of the mature chain
B7: activin-A I105E (ligand, human, UniProt P08476 311-426, looked up)
chain: GLECDGKVNICCKKQFFVSFKDIGWNDWIIAPSGYHANYCEGECPSHIAGTSGSSLSFHSTVINHYRMRGHSPFANLKSCCVPTKLRPMSMLYYDDGQNIIKKDEQNMIVEECGCS
B8: activin-A M91E (ligand, human, UniProt P08476 311-426, looked up)
chain: GLECDGKVNICCKKQFFVSFKDIGWNDWIIAPSGYHANYCEGECPSHIAGTSGSSLSFHSTVINHYRMRGHSPFANLKSCCVPTKLRPMSELYYDDGQNIIKKDIQNMIVEECGCS
B9: activin-A I63P (ligand, human, UniProt P08476 311-426, looked up)
chain: GLECDGKVNICCKKQFFVSFKDIGWNDWIIAPSGYHANYCEGECPSHIAGTSGSSLSFHSTVPNHYRMRGHSPFANLKSCCVPTKLRPMSMLYYDDGQNIIKKDIQNMIVEECGCS
B10: activin-A/C chimera A/C 54-63 (ligand, UniProt P08476 311-363, looked up)
chain: GLECDGKVNICCKKQFFVSFKDIGWNDWIIAPSGYHANYCEGECPSHIAGTSGIAASFHTAVLNHYRMRGHSPFANLKSCCVPTKLRPMSMLYYDDGQNIIKKDIQNMIVEECGCS
notes: range 1-53 of the mature chain;range 54-63 of the mature chain;range 64 to C-terminus of the mature chain
B11: activin-A/C chimera A/C 70-78 (ligand, UniProt P08476 311-379, looked up)
chain: GLECDGKVNICCKKQFFVSFKDIGWNDWIIAPSGYHANYCEGECPSHIAGTSGSSLSFHSTVINHYRMRTAAGTTGGGSCCVPTKLRPMSMLYYDDGQNIIKKDIQNMIVEECGCS
notes: range 1-69 of the mature chain;range 70-78 of the mature chain;range 79 to C-terminus of the mature chain
B12: activin-A/C chimera A/C 46-53 (ligand, UniProt P08476 311-355, looked up)
chain: GLECDGKVNICCKKQFFVSFKDIGWNDWIIAPSGYHANYCEGECPLHIAGMPGSSLSFHSTVINHYRMRGHSPFANLKSCCVPTKLRPMSMLYYDDGQNIIKKDIQNMIVEECGCS
notes: range 1-45 of the mature chain;range 46-53 of the mature chain;range 54 to C-terminus of the mature chain
B13: activin-A (M108A) (ligand, human, UniProt P08476 311-426, looked up)
chain: GLECDGKVNICCKKQFFVSFKDIGWNDWIIAPSGYHANYCEGECPSHIAGTSGSSLSFHSTVINHYRMRGHSPFANLKSCCVPTKLRPMSMLYYDDGQNIIKKDIQNAIVEECGCS
notes: mature; Radioiodinated by the chloramine T method for the crosslinking study; also called M108A activin-A; M108A mutant
B14: activin-A/C chimera A/C 46-78 (ligand, UniProt P08476 311-355, looked up)
chain: GLECDGKVNICCKKQFFVSFKDIGWNDWIIAPSGYHANYCEGECPLHIAGMPGIAASFHTAVLNLLKANTAAGTTGGGSCCVPTKLRPMSMLYYDDGQNIIKKDIQNMIVEECGCS
notes: range 1-45 of the mature chain;range 46-78 of the mature chain;range 79 to C-terminus of the mature chain; also called A/C 46-78 chimera

How the values were obtained:
[1] = molecular target: ActRII (type II activin receptor) transfected into 293T cells (UniProt P27038); test: cell-based or functional assay
ActRII (type II activin receptor) transfected into 293T cells, sequence (P27038 20-513): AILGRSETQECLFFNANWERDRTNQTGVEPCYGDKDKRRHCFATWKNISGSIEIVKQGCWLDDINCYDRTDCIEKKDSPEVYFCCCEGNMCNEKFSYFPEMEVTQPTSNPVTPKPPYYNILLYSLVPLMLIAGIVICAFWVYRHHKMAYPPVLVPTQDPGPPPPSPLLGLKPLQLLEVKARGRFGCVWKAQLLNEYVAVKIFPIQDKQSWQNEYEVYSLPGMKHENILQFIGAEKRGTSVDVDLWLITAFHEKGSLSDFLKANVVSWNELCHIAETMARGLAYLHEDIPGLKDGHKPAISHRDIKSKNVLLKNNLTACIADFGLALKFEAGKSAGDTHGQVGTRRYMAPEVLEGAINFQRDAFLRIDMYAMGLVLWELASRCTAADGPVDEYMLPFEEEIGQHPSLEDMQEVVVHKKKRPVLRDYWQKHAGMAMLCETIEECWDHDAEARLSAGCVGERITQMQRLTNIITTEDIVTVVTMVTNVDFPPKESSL

[2] = molecular target: activin receptors of non-transfected 293T cells; test: competition binding, 125I-activin on non-transfected 293T cells
[3] = molecular target: T1, ALK4 (activin type I receptor); test: cell-based or functional assay
[4] = molecular target: T2, ActRII and ALK4 co-transfected into 293T cells (UniProt P27038 20-513; P36896 24-505); test: competition binding, 125I-activin on 293T cells transfected with ActRII and ALK4
T2 construct: whole, on cells; Both receptors on the same cells; also called cells transfected with ActRII and ALK4; receptor complex
T2 sequence (P27038 20-513, one chain of several): as the sequence (P27038 20-513) above

[5] = molecular target: T3, mouse ActRII transfected into 293T cells (mouse, UniProt P27038 20-513); test: ActRII binding, 293T cells transfected with mouse ActRII
T3 construct: whole, on cells
T3 sequence (P27038 20-513): as above
Procedure: After the incubation cells were washed three times with HDB buffer and lysed with 1% SDS solution. Radioactivity in the lysate was determined using a gamma counter.
Therefore, the inventors contemplate engineering a series of activin-A chimeras, such as activin-A/C chimeras, preferably having a peptide tag such a FLAG tag, in each of […] in the wrist loop and helix (such as A/C 46-53, 54-63, 64-69, 70-78) are replaced. Additionally, a chimera was generated in which the entire wrist region (A/C 46-78) was changed from activin-A to activin-C or some other analogous TGF-β member. In one example, the chimeras were assessed for ActRII binding, activin bioactivity as well as antagonistic properties. […] Maximum activity of A/C 64-69 and 70-78, however, was reduced down to about 20-50% and 60-90%, respectively, when compared to wt activin. […] Additionally, A/C 46-78 decreased the basal and activin induced FSH release from cultured rat anterior pituitary cells in a concentration dependent manner. […] The activin antagonist A/C 46-78 may be useful for the study and modulation of activin dependent processes.

[6] = molecular target: T1, ALK4 (activin type I receptor); test: cell-based or functional assay; remark: listed apart in the source
[7] = molecular target: type II activin receptors in 293T cells; test: cell-based or functional assay
[8] = molecular target: T1, ALK4 (activin type I receptor); test: DSS crosslinking of 125I-M108A to 293T cells transfected with ActRII-myc and ALK4, immunoprecipitation, SDS-PAGE, autoradiography
Procedure: Cells were incubated with labeled activin or labeled M108A as indicated, subjected to covalent crosslinking with dissucinylsuberate (DSS), solubilized in lysis buffer, immunoprecipitated using an antibody against myc or ALK4 and then immunoprecipitated proteins were resolved by SDS-PAGE and visualized by autoradiography.
Approximately 24 h later, cells were transfected with 2 μg DNA per well with the indicated constructs (the ratio of ActRII:ALK4 was 2:1 and total DNA was kept constant using pcDNA3.0). […] Cells were washed in HDB, resuspended at 0.5 mM disuccinylsuberate (DSS) in HDB and incubated 30 min on ice. Crosslinking reactions were quenched with TBS (50 mM Tris-HCl pH 7.5, 150 mM NaCl) and cells were solubilized in lysis buffer (TBS containing 1% NP-40, 0.5% deoxycholate and 2 mM EDTA) and subjected to immunopreciptation using anti-myc or anti-ALK4 antibodies as indicated. Immune complexes were analyzed by SDS-PAGE and autoradiography.

Binder | % Activin Activity (A3-luciferase assay in 293T cells) [6] | binding result [5] | other results
B1 | – | – | % Activin Activity (A3-luciferase assay in 293T cells) (% of wild type activin-A) [1]: 18
B2 | 100 % of wild type activin-A | – | apparent affinity [2]: 60 to 80 pM; fold higher affinity than in cells transfected with ActRII alone [2]: 2 fold; EC50 of activity in the A3 Lux reporter assay in 293T cells [3]: 0.2 nM; fold higher affinity than in cells transfected with ActRII alone [4]: 2 fold; EC50 [5]: 0.15 nM
B3 | – | – | activin-A (100 pM) induced luciferase response in 293T cells with increasing amounts of M108A (fold induction) [7]: 23; myostatin (500 pM) induced luciferase response in 293T cells with increasing doses of M108A (fold induction) [7]: 26
B4 | 17 % of wild type activin-A | – | –
B5 | 3 % of wild type activin-A | – | –
B6 | – | binds | –
B7 | 13 % of wild type activin-A | – | –
B8 | 3 % of wild type activin-A | – | –
B9 | 19 % of wild type activin-A | – | –
B10 | – | binds | –
B11 | – | binds | –
B12 | – | binds | –
B13 | 8 % of wild type activin-A | – | binding result [8]: no binding; affinity [2]: 370 pM
B14 | – | binds | –
